Each block holds one substance with its values, some of them ahead of it.
What was measured:
Assay in all cases: SEC-MALS
[1] = biological target: Ml1 protein from Mesorhizobium loti (Mesorhizobium loti)
[2] = biological target: Ml2 protein from Mesorhizobium loti (Mesorhizobium loti)
[3] = biological target: MucR from Brucella abortus (Brucella abortus 2308)

stoichiometry N [1]: 10.4
Substance: Ml1 protein from Mesorhizobium loti (natural protein)

stoichiometry N [2]: 9.96
Substance: Ml2 protein from Mesorhizobium loti (natural protein)

Substance: MucR from Brucella abortus (natural protein)
stoichiometry N [3]: 10.4

— publication PMC5693944
